This assay concerns the target fibrous bovine collagen I (bovine) (UniProt P02453).
Chain of UniProt P02453 (P02453 162-1217, chain 1 of 2): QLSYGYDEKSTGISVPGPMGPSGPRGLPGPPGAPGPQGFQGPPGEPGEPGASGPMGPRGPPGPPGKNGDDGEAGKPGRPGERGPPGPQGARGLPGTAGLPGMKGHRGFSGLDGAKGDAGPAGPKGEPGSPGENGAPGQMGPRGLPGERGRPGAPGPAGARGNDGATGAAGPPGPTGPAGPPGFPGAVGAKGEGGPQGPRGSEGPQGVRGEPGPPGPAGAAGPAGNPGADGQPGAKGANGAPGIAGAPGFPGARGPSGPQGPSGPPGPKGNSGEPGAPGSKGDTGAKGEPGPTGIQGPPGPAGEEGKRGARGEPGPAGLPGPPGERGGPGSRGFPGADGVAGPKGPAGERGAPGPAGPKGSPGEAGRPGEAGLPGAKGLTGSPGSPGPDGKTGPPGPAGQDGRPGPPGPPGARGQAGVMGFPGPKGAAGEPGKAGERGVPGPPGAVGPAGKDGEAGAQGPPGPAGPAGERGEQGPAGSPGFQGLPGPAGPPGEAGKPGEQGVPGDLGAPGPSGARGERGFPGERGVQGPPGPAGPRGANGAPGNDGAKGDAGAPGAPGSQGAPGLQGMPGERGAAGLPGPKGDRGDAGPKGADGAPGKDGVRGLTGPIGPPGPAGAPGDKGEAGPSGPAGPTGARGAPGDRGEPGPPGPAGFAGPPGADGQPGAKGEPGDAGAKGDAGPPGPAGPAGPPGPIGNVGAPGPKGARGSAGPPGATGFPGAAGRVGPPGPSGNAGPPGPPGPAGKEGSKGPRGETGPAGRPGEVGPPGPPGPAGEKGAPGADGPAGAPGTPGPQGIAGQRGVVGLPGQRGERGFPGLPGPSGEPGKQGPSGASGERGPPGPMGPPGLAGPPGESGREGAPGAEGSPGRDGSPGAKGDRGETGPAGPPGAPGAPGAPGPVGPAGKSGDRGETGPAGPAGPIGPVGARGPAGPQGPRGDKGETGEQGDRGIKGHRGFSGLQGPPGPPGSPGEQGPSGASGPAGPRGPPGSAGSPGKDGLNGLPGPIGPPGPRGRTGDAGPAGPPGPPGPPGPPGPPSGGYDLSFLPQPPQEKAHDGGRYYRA
Chain of UniProt P02453 (P02465 80-1117, chain 2 of 2, further chain): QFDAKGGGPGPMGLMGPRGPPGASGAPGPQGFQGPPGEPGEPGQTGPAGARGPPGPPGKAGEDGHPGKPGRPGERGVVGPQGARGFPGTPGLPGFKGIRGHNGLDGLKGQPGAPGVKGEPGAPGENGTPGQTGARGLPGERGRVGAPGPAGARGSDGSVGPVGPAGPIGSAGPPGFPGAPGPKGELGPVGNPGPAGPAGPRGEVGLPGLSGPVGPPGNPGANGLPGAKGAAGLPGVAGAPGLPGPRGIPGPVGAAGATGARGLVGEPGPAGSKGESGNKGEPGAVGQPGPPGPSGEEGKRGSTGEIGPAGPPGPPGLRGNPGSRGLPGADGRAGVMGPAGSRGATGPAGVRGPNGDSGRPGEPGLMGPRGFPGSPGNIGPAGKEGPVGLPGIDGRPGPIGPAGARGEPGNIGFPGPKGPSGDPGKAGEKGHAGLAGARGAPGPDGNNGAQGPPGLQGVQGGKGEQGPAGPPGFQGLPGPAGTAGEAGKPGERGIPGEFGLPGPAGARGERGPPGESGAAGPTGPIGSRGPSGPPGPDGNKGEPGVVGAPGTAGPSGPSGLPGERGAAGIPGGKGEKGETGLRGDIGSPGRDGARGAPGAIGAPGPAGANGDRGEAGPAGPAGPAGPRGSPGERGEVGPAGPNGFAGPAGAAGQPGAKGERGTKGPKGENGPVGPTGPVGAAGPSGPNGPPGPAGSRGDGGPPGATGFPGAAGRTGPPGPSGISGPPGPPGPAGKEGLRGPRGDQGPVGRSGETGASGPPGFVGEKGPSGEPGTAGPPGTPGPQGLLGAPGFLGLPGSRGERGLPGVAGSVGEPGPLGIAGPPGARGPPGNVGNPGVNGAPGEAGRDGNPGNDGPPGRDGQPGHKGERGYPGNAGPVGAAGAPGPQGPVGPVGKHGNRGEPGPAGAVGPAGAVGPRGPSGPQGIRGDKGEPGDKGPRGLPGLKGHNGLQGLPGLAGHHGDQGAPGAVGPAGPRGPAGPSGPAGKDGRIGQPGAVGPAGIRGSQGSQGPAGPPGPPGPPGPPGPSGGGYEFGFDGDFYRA

“glycoprotein VI (from UniProt Q9HCN6 21-339) (receptor)”: the reduction of static adhesion of washed human platelets to fibrous collagen I by anti-GPVI scFv in the presence of EDTA, relative to EDTA alone is 40% and the reduction of static adhesion of washed human platelets to fibrous collagen I by anti-GPVI scFv in the presence of EDTA, relative to control came out at 70%.

(Values after article PMC4855633.)
